Experimental data published in US20250084169A1.
Like-named read-outs stand apart in the source and are kept apart here.

Experiments:
[1] = molecular target: cynomolgus monkey Fc gamma receptor CD32a (cynomolgus monkey)
[2] = molecular target: cynomolgus monkey Fc gamma receptor CD32a (cynomolgus monkey); remark: listed apart in the source
[3] = molecular target: cynomolgus monkey Fc gamma receptor CD32b (cynomolgus monkey)
[4] = molecular target: cynomolgus monkey Fc gamma receptor CD64 (cynomolgus monkey)
[5] = molecular target: cynomolgus monkey Fc gamma receptor CD64 (cynomolgus monkey); remark: listed apart in the source

Tafasitamab-cxix (research grade biosimilar) (antibody), sequence (heavy): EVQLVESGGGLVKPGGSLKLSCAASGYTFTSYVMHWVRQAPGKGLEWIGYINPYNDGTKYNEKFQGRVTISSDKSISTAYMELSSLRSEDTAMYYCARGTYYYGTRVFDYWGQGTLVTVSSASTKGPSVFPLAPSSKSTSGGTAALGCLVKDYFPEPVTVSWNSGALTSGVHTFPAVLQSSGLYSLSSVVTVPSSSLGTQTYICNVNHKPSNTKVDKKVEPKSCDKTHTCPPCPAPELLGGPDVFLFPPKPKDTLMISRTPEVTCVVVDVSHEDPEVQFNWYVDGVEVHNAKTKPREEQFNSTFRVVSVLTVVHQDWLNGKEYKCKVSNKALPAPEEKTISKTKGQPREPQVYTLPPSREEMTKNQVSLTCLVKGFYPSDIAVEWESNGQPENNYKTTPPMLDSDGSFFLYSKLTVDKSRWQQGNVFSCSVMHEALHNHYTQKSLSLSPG
Tafasitamab-cxix (research grade biosimilar) (antibody), sequence (light): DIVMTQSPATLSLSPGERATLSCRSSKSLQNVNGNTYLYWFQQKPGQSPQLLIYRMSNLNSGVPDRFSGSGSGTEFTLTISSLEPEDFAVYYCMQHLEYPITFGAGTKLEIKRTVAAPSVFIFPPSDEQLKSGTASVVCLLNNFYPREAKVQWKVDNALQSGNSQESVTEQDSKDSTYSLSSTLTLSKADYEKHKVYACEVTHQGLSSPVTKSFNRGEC

Substance	Kd [1] [nM]	Kd [2] [nM]	Kd [3] [nM]	Kd [4] [nM]	Kd [5] [nM]
Rituximab (antibody)	5940	3130	1460	< 0.02	–
FMC59-S239D/I332E (huFMC63-S239D/I332E) (antibody)	–	–	–	< 0.02	1
Tafasitamab-cxix (research grade biosimilar) (antibody)	–	–	–	< 0.02	1.8
